Data set [1] concerns the target His-Hsp70 (Heat Shock Protein 70) (UniProt P0DMV8). The data set can be described thus: BLI. The following applies: 25 mM HEPES, 5 mM MgCl2, 300 mM KCl, pH 7.4 (BLI) or 7.5 (SELEX), 24 °C, plate assay washes with 1% BSA.
Data set [2] shares this target. The data set can be described thus: fluorescence plate binding assay. The following applies: 25 mM HEPES, 5 mM MgCl2, 300 mM KCl, pH 7.4 (BLI) or 7.5 (SELEX), 24 °C, plate assay washes with 1% BSA.
Data set [3] concerns His-CPA (C-terminus of RNA polymerase subunit PA) (Influenza A). Nature of the data set: BLI. Particulars: all A are 7-phenylbutyl-7-deaza-dA (A*); 25 mM HEPES, 5 mM MgCl2, 300 mM KCl, pH 7.4 (BLI) or 7.5 (SELEX), 24 °C; plate assay washes with 1% BSA, 0.05% Tween …; aptamers folded 95 °C 5 min then cooled.
Data set [4] concerns His-NPA (N-terminus of RNA polymerase subunit PA) (Influenza A). Nature of the data set: BLI. The following applies: all A are 7-phenylbutyl-7-deaza-dA (A*); 25 mM HEPES, 5 mM MgCl2, 300 mM KCl, pH 7.4 (BLI) or 7.5 (SELEX), 24 °C; plate assay washes with 1% BSA, 0.05% Tween …; aptamers folded 95 °C 5 min then cooled.
Data set [5] deals with His-SUMO. Nature of the data set: BLI. Particulars: all A are 7-phenylbutyl-7-deaza-dA (A*); 25 mM HEPES, 5 mM MgCl2, 300 mM KCl, pH 7.4 (BLI) or 7.5 (SELEX), 24 °C; plate assay washes with 1% BSA, 0.05% Tween …; aptamers folded 95 °C 5 min then cooled.
The target of another data set is SBP-Hsp70 (UniProt P0DMV8). The data set can be described thus: BLI. Particulars: all A are 7-phenylbutyl-7-deaza-dA (A*); 25 mM HEPES, 5 mM MgCl2, 300 mM KCl, pH 7.4 (BLI) or 7.5 (SELEX), 24 °C; plate assay washes with 1% BSA, 0.05% Tween …; aptamers folded 95 °C 5 min then cooled.
Data set [6] concerns His-CPA (C-terminus of RNA polymerase subunit PA) (Influenza A). Nature of the data set: fluorescence plate binding assay. Particulars: all A are 7-phenylbutyl-7-deaza-dA (A*); 25 mM HEPES, 5 mM MgCl2, 300 mM KCl, pH 7.4 (BLI) or 7.5 (SELEX), 24 °C; plate assay washes with 1% BSA, 0.05% Tween …; aptamers folded 95 °C 5 min then cooled.
For data set [7], the system named is His-NPA (N-terminus of RNA polymerase subunit PA) (Influenza A). The data set can be described thus: fluorescence plate binding assay. Particulars: all A are 7-phenylbutyl-7-deaza-dA (A*); 25 mM HEPES, 5 mM MgCl2, 300 mM KCl, pH 7.4 (BLI) or 7.5 (SELEX), 24 °C; plate assay washes with 1% BSA, 0.05% Tween …; aptamers folded 95 °C 5 min then cooled.
Data set [8] deals with His-SUMO. The data set can be described thus: fluorescence plate binding assay. The following applies: all A are 7-phenylbutyl-7-deaza-dA (A*); 25 mM HEPES, 5 mM MgCl2, 300 mM KCl, pH 7.4 (BLI) or 7.5 (SELEX), 24 °C; plate assay washes with 1% BSA, 0.05% Tween …; aptamers folded 95 °C 5 min then cooled.
Where [9] appears, read: A after nt 19 are 7-phenylbutyl-7-deaza-dA (A*), 0.05% Tween 20, aptamers folded 95 °C 5 min then ….
Where [10] appears, read: none (natural dA), 0.05% Tween 20, aptamers folded 95 °C 5 min then ….
[11] abbreviates: all A after nt 19 are 7-phenylbutyl-7-deaza-dA (A*), 0.05% Tween 20, aptamers folded 95 °C 5 min then ….
Where [12] appears, read: all A are 7-phenylbutyl-7-deaza-dA (A*), 0.05% Tween …, aptamers folded 95 °C 5 min then cooled.

Here are results for 8 sequences from paper PMC10079658.

pKd: −log10 of the molar value.

As to “GCAGCAGAGATAGACGCTACCCCTTAATAAAAACATACGGTCCATTCCCGTCGTACGATTGATTG [Scr2]”, the pKd (commonly the Kd on a negative log10 scale, so that one unit is a factor of ten) in [1] (setting [9]) is 6.21; in data set [2] (setting [9]), 6.16.
On to “GCAGCAGAGATAGACGCTATCGATGACTATAATTCCCATCTATCATCCAATGGCATAGCTGGCAC [Scr1]”, for which the pKd in data set [1] (setting [9]) is 6.25; in data set [2] (setting [9]), 6.27.
Take “GCAGCAGAGATAGACGCTAAGACCTCATAGTCCTTCTAATTATACTCCAATGGCATAGCTGGCAC [HSNat-9]”: the pKd in data set [1] (setting [10]) is 5.33; in [2] (setting [10]), less than 5.00.
On to “GCAGCAGAGATAGACGCTACCCCTTAATAAAAACATACGGTCCATTCCCGTCGTACGATTGATTG [Scr3]”, for which the pKd in data set [1] (setting [9]) is 6.15; in [2] (setting [9]), 6.11.
As to “GCAGCAGAGATAGACGCTAAGACCTCATAGTCCTTCTAATTATACTCCAATGGCATAGCTGGCAC [HSc-9]”, the pKd was 7.44 in data set [1] (setting [11]) and 7.54 in data set [2] (setting [11]).
Regarding “GCAGCAGAGATAGACGCTATTCTCTAGACCTTCTAATTTACATACTCCAATGGCATAGCTGGCAC [HSNat-2]”, the pKd in data set [1] (setting [10]) was less than 5.30; in data set [2] (setting [10]), less than 5.00.
“AGACCTCATAGTCCTTCTAATTATACTCCAATGGCATAGCTGGCAC [HSc-9.1]”: the pKd was 5.91 in data set [3]; 7.54 in [1] (setting [12]); 5.81 in data set [4]; 5.88 with His-SUMO [5]; 7.55 in the data set with SBP-Hsp70; 6.00 in data set [6]. For the same sequence, the pKd is 7.83 in [2] (setting [12]), 5.90 in [7] and 5.95 in the data set on His-SUMO [8].
As to “GCAGCAGAGATAGACGCTATTCTCTAGACCTTCTAATTTACATACTCCAATGGCATAGCTGGCAC [HSc-2]”, the pKd in [1] (all A after nt 19 plus those marked A* are 7-phenylbutyl-7-deaza-dA, except none in 5' primer region (nt 1-19), printed A26 and later marked A*, 0.05% Tween 20, aptamers folded 95 °C 5 min then …) was 7.18; in [2] (error printed as 6 in Table 6, all A after nt 19 plus those marked A* are 7-phenylbutyl-7-deaza-dA, except none in 5' primer region (nt 1-19), printed A26 and later marked A*, 0.05% Tween 20, aptamers folded 95 °C 5 min then …), 6.61.
